Reference: paper PMC7858052, “Z-Ring-Associated Proteins Regulate Clustering of the Replication Terminus-Binding Protein ZapT in Caulobacter crescentus” (mBio, 2021)

Assays:
[1] = molecular target: truncated variant of ZapT-His that lacks the C-terminal sensor domain (Caulobacter crescentus); assay: SEC; Superdex 200 PC3.2/30; 25 mM Tris-HCl pH 7.5, 300 mM NaCl, 20% sucrose; 20 ul/min; fractions on SDS-15% PAGE, Coomassie; single proteins and mixtures (also His-ZauP + ZapT-His + ZapTΔC-His with ZapT-His as internal control)
[2] = molecular target: the molecule itself; assay: as above

Q: How did the stoichiometry N [1] turn out when “truncated variant of ZapT-His that lacks the C-terminal sensor domain (domain or fragment)” was run?
A: Its stoichiometry N is 2.

B1: ZauP with an N-terminal hexahistidine-SUMO tag (natural protein, Caulobacter crescentus, UniProt A0A0H3CD23 1-127, looked up)
chain: MIPADSTALDLAVRRLERAVSQLEQRLAAKAAETQRALAAAATSAVALPLAVTEPSLFDDDERARLVADLEAAREREKALEEAGEQASVALGRAIAEIRAALGDESVANDLHAPGDDDDLFEDSEEA
notes: ZauP, functional ZapB homolog of Caulobacter crescentus NA1000, locus CCNA_03357; tagged protein printed as 26 kDa; primers Nhis-SUMO-zapB-P3/P4 run from the start codon to the stop codon; also called His-ZauP; source: E. coli, purified (procedure in Text S1); not shown: His6-SUMO, N-terminal, kept
Q: How did the “stoichiometry N” value [2] turn out when B1 was run?
A: Its value is 6.

B2: ZapT with a C-terminal hexahistidine tag (natural protein, Caulobacter crescentus, UniProt A0A0H3C832 1-141, looked up)
chain: MAKGPNAFRTISEAAEELGVPQHVLRFWETKFSFIRPMKRAGGRRFYRPQDIAVLNGVRTLLHSEGLTIKGVQKLHRDHGLAHVIAAGLGSNGSASLEAEYDYAPRGKERPVGEETRDRLAFALADLTAIKSRLDGLLARG
notes: tagged protein printed as 21 kDa; the last residue of ZapT is printed as Gly141; also called ZapT-His; wild-type ZapT-His; source: E. coli, purified (procedure in Text S1); not shown: His6, C-terminal, kept
Q: Which “stoichiometry N” value [2] does the source give for B2 here?
A: The value was 2.

B3: ZapA with an N-terminal hexahistidine-MBP tag (natural protein, Caulobacter crescentus, UniProt A0A0H3CCW6 1-108, looked up)
chain: MAQVTIQVNGRPYMVGCEDGQEPHLTELARLFDRQVRQVSQDVGQLGETRLFLMGALLLADELSDMKLRLAHANAEIARMQQEGTKAEIAAIRALDAAAERIEKLATE
notes: ZapA, Z-ring-associated protein of Caulobacter crescentus NA1000, locus CCNA_03356; tagged protein printed as 56 kDa; primers NhisMBP-zapA-fwd/rev run from the start codon to the stop codon; also called His-ZapA; source: E. coli, purified (procedure in Text S1); not shown: His6-MBP, N-terminal, kept
Q: For B3, which “stoichiometry N” value [2] is on record?
A: Its value is 4.
